Target: purified BfpD assembly ATPase (enteropathogenic Escherichia coli (EPEC))

## purified BfpD assembly ATPase (enzyme)
  stoichiometry N: 6
